Target: SARS-CoV-2 RBD (WT) (SARS-CoV-2, UniProt P0DTC2)
Experiment: SPR

B1: P4A1 (antibody, V domains shown)
VH: EVQLVESGGGLIQPGGSLRLSCAASGFIVSSNYMSWVRQAPGKGLEWVSIIYSGGSTFYADSVKGRFTISRDNSKNTLYLQMNSLRVEDTAVYYCARDLQELGSLDYWGQGTLVTVSS
VL: DIQMTQSPSSVSASVGDRVTITCRASQGISSWLAWYQQKPGKAPKLLIYAASSLQSGVPSRFSGSGSGTDFTLTISSLQPEDFATYYCQEANSFPYTFGQGTKLEIK
Question: How did the Kd turn out when B1 was run?
Answer: 0.102 nM
